In patent publication US11833164B2, “Methods of treating Fabry disease in patients having a mutation in the GLA gene” (Amicus Therapeutics, Inc., priority 2019, dated 2023):

Tested on: mutant form of α-Gal A expressed in HEK-293 cells
Test: HEK assay (GLP HEK / Migalastat Amenability Assay): α-Gal A activity in lysates of transiently transfected HEK-293 cells incubated with or without 10 μM migalastat
Type: cell-based, human
Conditions: for Absolute increase (% WT): 10 μM migalastat versus baseline; for Relative increase: 10 μM migalastat α-Gal A activity relative to baseline; for 10 μM migalastat α-Gal A activity (% WT): 5 days; for 10 μM migalastat α-Gal A activity (% WT) / Baseline α-Gal A activity (% WT): percentage of baseline wild-type α-Gal A activity; for 10 μM migalastat α-Gal A activity (% WT) / Baseline α-Gal A activity (% WT) / Baseline α-Gal A activity / 10 μM migalastat α-Gal A activity: mean ± SEM; for Baseline α-Gal A activity / 10 μM migalastat α-Gal A activity: lysates of HEK-293 cells transfected with the mutant form; for Baseline α-Gal A activity: incubated 5 days in the absence of migalastat; for 10 μM migalastat α-Gal A activity: incubated 5 days with 10 μM migalastat
Procedure, shortened: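 HEK-293 cells transiently transfected with mutant α-Gal A and incubated with or without 10 μM migalastat; lysate activity given as nmol free 4-MU released per mg protein per hour. Values are mean±SEM.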

B1: H186L (protein)
chain: MQLRNPELHLGCALALRFLALVSWDIPGARALDNGLARTPTMGWLHWERFMCNLDCQEEPDSCISEKLFMEMAELMVSEGWKDAGYEYLCIDDCWMAPQRDSEGRLQADPQRFPHGIRQLANYVHSKGLKLGIYADVGNKTCAGFPGSFGYYDIDAQTFADWGVDLLKFDGCYCDSLENLADGYKLMSLALNRTGRSIVYSCEWPLYMWPFQKPNYTEIRQYCNHWRNFADIDDSWKSIKSILDWTSFNQERIVDVAGPGGWNDPDMLVIGNFGLSWNQQVTQMALWAIMAAPLFMSNDLRHISPQAKALLQDKDVIAINQDPLGKQGYQLRQGDNFEVWERPLSGLAWAVAMINRQEIGGPRSYTIAVASLGKGVACNPACFITQLLPVKRKLGFYEWTSRLRSHINPTGTVLLQLENTMQMSLKDLL
  Absolute increase (% WT): 27.1 % WT
  Relative increase: 1.3
  10 μM migalastat α-Gal A activity (% WT): 97.5 ± 8.2 % WT
  Baseline α-Gal A activity: 31615 ± 1833 nmol/mg/h
  10 μM migalastat α-Gal A activity: 42145 ± 2540 nmol/mg/h
Absence of migalastat
  Baseline α-Gal A activity (% WT): 70.4 ± 3.4 % WT

B2: H186N (protein)
chain: MQLRNPELHLGCALALRFLALVSWDIPGARALDNGLARTPTMGWLHWERFMCNLDCQEEPDSCISEKLFMEMAELMVSEGWKDAGYEYLCIDDCWMAPQRDSEGRLQADPQRFPHGIRQLANYVHSKGLKLGIYADVGNKTCAGFPGSFGYYDIDAQTFADWGVDLLKFDGCYCDSLENLADGYKNMSLALNRTGRSIVYSCEWPLYMWPFQKPNYTEIRQYCNHWRNFADIDDSWKSIKSILDWTSFNQERIVDVAGPGGWNDPDMLVIGNFGLSWNQQVTQMALWAIMAAPLFMSNDLRHISPQAKALLQDKDVIAINQDPLGKQGYQLRQGDNFEVWERPLSGLAWAVAMINRQEIGGPRSYTIAVASLGKGVACNPACFITQLLPVKRKLGFYEWTSRLRSHINPTGTVLLQLENTMQMSLKDLL
  Absolute increase (% WT): 26.8 % WT
  Relative increase: 1.4
  10 μM migalastat α-Gal A activity (% WT): 90.3 ± 5.8 % WT
  Baseline α-Gal A activity: 28175 ± 1462 nmol/mg/h
  10 μM migalastat α-Gal A activity: 39509 ± 1885 nmol/mg/h
Absence of migalastat
  Baseline α-Gal A activity (% WT): 63.5 ± 3.1 % WT

B3: H186Q (protein)
chain: MQLRNPELHLGCALALRFLALVSWDIPGARALDNGLARTPTMGWLHWERFMCNLDCQEEPDSCISEKLFMEMAELMVSEGWKDAGYEYLCIDDCWMAPQRDSEGRLQADPQRFPHGIRQLANYVHSKGLKLGIYADVGNKTCAGFPGSFGYYDIDAQTFADWGVDLLKFDGCYCDSLENLADGYKQMSLALNRTGRSIVYSCEWPLYMWPFQKPNYTEIRQYCNHWRNFADIDDSWKSIKSILDWTSFNQERIVDVAGPGGWNDPDMLVIGNFGLSWNQQVTQMALWAIMAAPLFMSNDLRHISPQAKALLQDKDVIAINQDPLGKQGYQLRQGDNFEVWERPLSGLAWAVAMINRQEIGGPRSYTIAVASLGKGVACNPACFITQLLPVKRKLGFYEWTSRLRSHINPTGTVLLQLENTMQMSLKDLL
  Absolute increase (% WT): 28.5 % WT
  Relative increase: 1.4
  10 μM migalastat α-Gal A activity (% WT): 105.3 ± 7 % WT
  Baseline α-Gal A activity: 28845 ± 2365 nmol/mg/h
  10 μM migalastat α-Gal A activity: 38865 ± 2966 nmol/mg/h
Absence of migalastat
  Baseline α-Gal A activity (% WT): 76.9 ± 4.3 % WT

B4: H186Y (protein)
chain: MQLRNPELHLGCALALRFLALVSWDIPGARALDNGLARTPTMGWLHWERFMCNLDCQEEPDSCISEKLFMEMAELMVSEGWKDAGYEYLCIDDCWMAPQRDSEGRLQADPQRFPHGIRQLANYVHSKGLKLGIYADVGNKTCAGFPGSFGYYDIDAQTFADWGVDLLKFDGCYCDSLENLADGYKYMSLALNRTGRSIVYSCEWPLYMWPFQKPNYTEIRQYCNHWRNFADIDDSWKSIKSILDWTSFNQERIVDVAGPGGWNDPDMLVIGNFGLSWNQQVTQMALWAIMAAPLFMSNDLRHISPQAKALLQDKDVIAINQDPLGKQGYQLRQGDNFEVWERPLSGLAWAVAMINRQEIGGPRSYTIAVASLGKGVACNPACFITQLLPVKRKLGFYEWTSRLRSHINPTGTVLLQLENTMQMSLKDLL
  Absolute increase (% WT): 39.8 % WT
  Relative increase: 1.4
  10 μM migalastat α-Gal A activity (% WT): 123.6 ± 8.9 % WT
  Baseline α-Gal A activity: 37644 ± 2421 nmol/mg/h
  10 μM migalastat α-Gal A activity: 53613 ± 2581 nmol/mg/h
Absence of migalastat
  Baseline α-Gal A activity (% WT): 83.8 ± 4.5 % WT

B5: M187L (protein)
chain: MQLRNPELHLGCALALRFLALVSWDIPGARALDNGLARTPTMGWLHWERFMCNLDCQEEPDSCISEKLFMEMAELMVSEGWKDAGYEYLCIDDCWMAPQRDSEGRLQADPQRFPHGIRQLANYVHSKGLKLGIYADVGNKTCAGFPGSFGYYDIDAQTFADWGVDLLKFDGCYCDSLENLADGYKHLSLALNRTGRSIVYSCEWPLYMWPFQKPNYTEIRQYCNHWRNFADIDDSWKSIKSILDWTSFNQERIVDVAGPGGWNDPDMLVIGNFGLSWNQQVTQMALWAIMAAPLFMSNDLRHISPQAKALLQDKDVIAINQDPLGKQGYQLRQGDNFEVWERPLSGLAWAVAMINRQEIGGPRSYTIAVASLGKGVACNPACFITQLLPVKRKLGFYEWTSRLRSHINPTGTVLLQLENTMQMSLKDLL
  Absolute increase (% WT): 29.2 % WT
  Relative increase: 6.7
  10 μM migalastat α-Gal A activity (% WT): 34.5 ± 1.9 % WT
  Baseline α-Gal A activity: 1924 ± 64 nmol/mg/h
  10 μM migalastat α-Gal A activity: 12810 ± 929 nmol/mg/h
Absence of migalastat
  Baseline α-Gal A activity (% WT): 5.3 ± 0.2 % WT

B6: S188A (protein)
chain: MQLRNPELHLGCALALRFLALVSWDIPGARALDNGLARTPTMGWLHWERFMCNLDCQEEPDSCISEKLFMEMAELMVSEGWKDAGYEYLCIDDCWMAPQRDSEGRLQADPQRFPHGIRQLANYVHSKGLKLGIYADVGNKTCAGFPGSFGYYDIDAQTFADWGVDLLKFDGCYCDSLENLADGYKHMALALNRTGRSIVYSCEWPLYMWPFQKPNYTEIRQYCNHWRNFADIDDSWKSIKSILDWTSFNQERIVDVAGPGGWNDPDMLVIGNFGLSWNQQVTQMALWAIMAAPLFMSNDLRHISPQAKALLQDKDVIAINQDPLGKQGYQLRQGDNFEVWERPLSGLAWAVAMINRQEIGGPRSYTIAVASLGKGVACNPACFITQLLPVKRKLGFYEWTSRLRSHINPTGTVLLQLENTMQMSLKDLL
  Absolute increase (% WT): 25.7 % WT
  Relative increase: 1.4
  10 μM migalastat α-Gal A activity (% WT): 86.3 ± 4.9 % WT
  Baseline α-Gal A activity: 22589 ± 1833 nmol/mg/h
  10 μM migalastat α-Gal A activity: 32197 ± 2515 nmol/mg/h
Absence of migalastat
  Baseline α-Gal A activity (% WT): 60.6 ± 4 % WT

B7: S188C (protein)
chain: MQLRNPELHLGCALALRFLALVSWDIPGARALDNGLARTPTMGWLHWERFMCNLDCQEEPDSCISEKLFMEMAELMVSEGWKDAGYEYLCIDDCWMAPQRDSEGRLQADPQRFPHGIRQLANYVHSKGLKLGIYADVGNKTCAGFPGSFGYYDIDAQTFADWGVDLLKFDGCYCDSLENLADGYKHMCLALNRTGRSIVYSCEWPLYMWPFQKPNYTEIRQYCNHWRNFADIDDSWKSIKSILDWTSFNQERIVDVAGPGGWNDPDMLVIGNFGLSWNQQVTQMALWAIMAAPLFMSNDLRHISPQAKALLQDKDVIAINQDPLGKQGYQLRQGDNFEVWERPLSGLAWAVAMINRQEIGGPRSYTIAVASLGKGVACNPACFITQLLPVKRKLGFYEWTSRLRSHINPTGTVLLQLENTMQMSLKDLL
  Absolute increase (% WT): 18.5 % WT
  Relative increase: 1.4
  10 μM migalastat α-Gal A activity (% WT): 68.6 ± 4.3 % WT
  Baseline α-Gal A activity: 18465 ± 1552 nmol/mg/h
  10 μM migalastat α-Gal A activity: 25569 ± 2083 nmol/mg/h
Absence of migalastat
  Baseline α-Gal A activity (% WT): 50.1 ± 3.7 % WT

B8: S188F (protein)
chain: MQLRNPELHLGCALALRFLALVSWDIPGARALDNGLARTPTMGWLHWERFMCNLDCQEEPDSCISEKLFMEMAELMVSEGWKDAGYEYLCIDDCWMAPQRDSEGRLQADPQRFPHGIRQLANYVHSKGLKLGIYADVGNKTCAGFPGSFGYYDIDAQTFADWGVDLLKFDGCYCDSLENLADGYKHMFLALNRTGRSIVYSCEWPLYMWPFQKPNYTEIRQYCNHWRNFADIDDSWKSIKSILDWTSFNQERIVDVAGPGGWNDPDMLVIGNFGLSWNQQVTQMALWAIMAAPLFMSNDLRHISPQAKALLQDKDVIAINQDPLGKQGYQLRQGDNFEVWERPLSGLAWAVAMINRQEIGGPRSYTIAVASLGKGVACNPACFITQLLPVKRKLGFYEWTSRLRSHINPTGTVLLQLENTMQMSLKDLL
  Absolute increase (% WT): 36.4 % WT
  Relative increase: 2.8
  10 μM migalastat α-Gal A activity (% WT): 57.1 ± 2.8 % WT
  Baseline α-Gal A activity: 7746 ± 839 nmol/mg/h
  10 μM migalastat α-Gal A activity: 21273 ± 1477 nmol/mg/h
Absence of migalastat
  Baseline α-Gal A activity (% WT): 20.7 ± 2 % WT

B9: S188P (protein)
chain: MQLRNPELHLGCALALRFLALVSWDIPGARALDNGLARTPTMGWLHWERFMCNLDCQEEPDSCISEKLFMEMAELMVSEGWKDAGYEYLCIDDCWMAPQRDSEGRLQADPQRFPHGIRQLANYVHSKGLKLGIYADVGNKTCAGFPGSFGYYDIDAQTFADWGVDLLKFDGCYCDSLENLADGYKHMPLALNRTGRSIVYSCEWPLYMWPFQKPNYTEIRQYCNHWRNFADIDDSWKSIKSILDWTSFNQERIVDVAGPGGWNDPDMLVIGNFGLSWNQQVTQMALWAIMAAPLFMSNDLRHISPQAKALLQDKDVIAINQDPLGKQGYQLRQGDNFEVWERPLSGLAWAVAMINRQEIGGPRSYTIAVASLGKGVACNPACFITQLLPVKRKLGFYEWTSRLRSHINPTGTVLLQLENTMQMSLKDLL
  Absolute increase (% WT): 3.2 % WT
  10 μM migalastat α-Gal A activity (% WT): 3.2 ± 0.2 % WT
  10 μM migalastat α-Gal A activity: 1159 ± 61 nmol/mg/h
Absence of migalastat, mean activity below the limit of detection (<142 nmol/mg/hr)
  Baseline α-Gal A activity (nmol/mg/hr): BLD (“BLD” indicates that the mean α-Gal A activity was below the limit of detection (<142 nmol/mg/hr))
